The record followed here is patent US20260242735A1 (UNIVERSIT T BASEL, published 2026).

In one assay the target is human CD33 R62A (human, UniProt P20138 18-364). The assay is described as follows: alanine scan, flow cytometry, HEK293-T.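 Note: antibody binding to each alanine-substituted CD33 mutant expressed transiently in HEK293-T, read as fluorescence minus background, mean of duplicates, relative to wild-type CD33 set as 100%.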 For orientation: A flow cytometer gives signals particle by particle.
Chain of human CD33 R62A (P20138 18-364 R62A limits assumed): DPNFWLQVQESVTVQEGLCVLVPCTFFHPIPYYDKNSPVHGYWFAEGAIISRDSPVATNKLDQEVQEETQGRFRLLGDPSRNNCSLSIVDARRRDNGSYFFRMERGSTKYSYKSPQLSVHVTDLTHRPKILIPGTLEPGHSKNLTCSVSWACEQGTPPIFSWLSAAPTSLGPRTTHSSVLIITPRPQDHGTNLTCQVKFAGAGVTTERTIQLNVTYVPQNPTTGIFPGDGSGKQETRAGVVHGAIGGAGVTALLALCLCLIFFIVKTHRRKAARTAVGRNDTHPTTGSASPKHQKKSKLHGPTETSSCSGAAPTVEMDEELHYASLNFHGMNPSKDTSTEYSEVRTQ
The target of another assay is human CD33 T75A (human, UniProt P20138 18-364). Nature of the assay: alanine scan, flow cytometry, HEK293-T.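 Note: antibody binding to each alanine-substituted CD33 mutant expressed transiently in HEK293-T, read as fluorescence minus background, mean of duplicates, relative to wild-type CD33 set as 100%.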
Chain of human CD33 T75A (P20138 18-364 T75A limits assumed): as the sequence (P20138 18-364 R62A limits assumed) above, with A45R, T58A counted along it
The target in a further assay is human CD33 P96A (human, UniProt P20138 18-364). The assay is described as follows: alanine scan, flow cytometry, HEK293-T.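 Note: antibody binding to each alanine-substituted CD33 mutant expressed transiently in HEK293-T, read as fluorescence minus background, mean of duplicates, relative to wild-type CD33 set as 100%.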
Chain of human CD33 P96A (P20138 18-364 P96A limits assumed): as the sequence (P20138 18-364 R62A limits assumed) above, with A45R, P79A counted along it
For a further assay, the target named is human CD33 L103A (human, UniProt P20138 18-364). Nature of the assay: alanine scan, flow cytometry, HEK293-T.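 Note: antibody binding to each alanine-substituted CD33 mutant expressed transiently in HEK293-T, read as fluorescence minus background, mean of duplicates, relative to wild-type CD33 set as 100%.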
Chain of human CD33 L103A (P20138 18-364 L103A limits assumed): as the sequence (P20138 18-364 R62A limits assumed) above, with A45R, L86A counted along it
Another assay has as its target human CD33 I47A (human, UniProt P20138 18-364). The assay is described as follows: alanine scan, flow cytometry, HEK293-T.
The next assay addresses human CD33 R119A (human, UniProt P20138 18-364). The assay is described as follows: alanine scan, flow cytometry, HEK293-T.
The next assay concerns the target T1, human CD33 D140A (human, UniProt P20138 18-364).
T1 construct: alanine scan clone, transfected HEK293-T
Nature of the assay: alanine scan, flow cytometry, HEK293-T.

A further assay deals with T2, human CD33 V165A (human, UniProt P20138 18-364).
T2 construct: alanine scan clone, transfected HEK293-T
T2 sequence (P20138 18-364 V165A limits assumed): as the sequence (P20138 18-364 R62A limits assumed) above, with A45R, V148A counted along it
The assay is described as follows: alanine scan, flow cytometry, HEK293-T.

Another assay has as its target human CD33 P19K (human, UniProt P20138 18-364). The assay is described as follows: flow cytometry, HEK293-T, IgG.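 Note: CD33 point mutants transiently expressed, antibody binding measured by fluorescence in duplicate, background subtracted and scaled to binding on wild-type CD33 as 100%.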
The target in the next assay is human CD33 N20G (human, UniProt P20138 18-364). The assay is described as follows: flow cytometry, HEK293-T, IgG.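 Note: CD33 point mutants transiently expressed, antibody binding measured by fluorescence in duplicate, background subtracted and scaled to binding on wild-type CD33 as 100%.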
Chain of human CD33 N20G (P20138 18-364 N20G limits assumed): as the sequence (P20138 18-364 R62A limits assumed) above, with N3G, A45R counted along it
Another assay deals with human CD33 N20S (human, UniProt P20138 18-364). Nature of the assay: flow cytometry, HEK293-T, IgG.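 Note: CD33 point mutants transiently expressed, antibody binding measured by fluorescence in duplicate, background subtracted and scaled to binding on wild-type CD33 as 100%.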
Chain of human CD33 N20S (P20138 18-364 N20S limits assumed): as the sequence (P20138 18-364 R62A limits assumed) above, with N3S, A45R counted along it
Another assay has as its target human CD33 N20L (human, UniProt P20138 18-364). Nature of the assay: flow cytometry, HEK293-T, IgG.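 Note: CD33 point mutants transiently expressed, antibody binding measured by fluorescence in duplicate, background subtracted and scaled to binding on wild-type CD33 as 100%.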
The target in another assay is human CD33 N20P (human, UniProt P20138 18-364). The assay is described as follows: flow cytometry, HEK293-T, IgG.
Chain of human CD33 N20P (P20138 18-364 N20P limits assumed): as the sequence (P20138 18-364 R62A limits assumed) above, with N3P, A45R counted along it
The target in another assay is human CD33 N20Q (human, UniProt P20138 18-364). The assay is described as follows: flow cytometry, HEK293-T, IgG.
Chain of human CD33 N20Q (P20138 18-364 N20Q limits assumed): as the sequence (P20138 18-364 R62A limits assumed) above, with N3Q, A45R counted along it
Another assay has as its target human CD33 N20D (human, UniProt P20138 18-364). The assay is described as follows: flow cytometry, HEK293-T, IgG.
The target of another assay is human CD33 F21S (human, UniProt P20138 18-364). The assay is described as follows: flow cytometry, HEK293-T, IgG.
Chain of human CD33 F21S (P20138 18-364 F21S limits assumed): as the sequence (P20138 18-364 R62A limits assumed) above, with F4S, A45R counted along it
A further assay deals with human CD33 F21V (human, UniProt P20138 18-364). The assay is described as follows: flow cytometry, HEK293-T, IgG.
Chain of human CD33 F21V (P20138 18-364 F21V limits assumed): as the sequence (P20138 18-364 R62A limits assumed) above, with F4V, A45R counted along it
Another assay has as its target human CD33 F21L (human, UniProt P20138 18-364). Nature of the assay: flow cytometry, HEK293-T, IgG.
In a further assay the target is human CD33 F21I (human, UniProt P20138 18-364). Nature of the assay: flow cytometry, HEK293-T, IgG.
Chain of human CD33 F21I (P20138 18-364 F21I limits assumed): as the sequence (P20138 18-364 R62A limits assumed) above, with F4I, A45R counted along it
The target in a further assay is human CD33 F21H (human, UniProt P20138 18-364). The assay is described as follows: flow cytometry, HEK293-T, IgG.
Chain of human CD33 F21H (P20138 18-364 F21H limits assumed): as the sequence (P20138 18-364 R62A limits assumed) above, with F4H, A45R counted along it
For the next assay, the target named is human CD33 W22G (human, UniProt P20138 18-364). Nature of the assay: flow cytometry, HEK293-T, IgG.
Chain of human CD33 W22G (P20138 18-364 W22G limits assumed): as the sequence (P20138 18-364 R62A limits assumed) above, with W5G, A45R counted along it
For a further assay, the target named is human CD33 W22S (human, UniProt P20138 18-364). The assay is described as follows: flow cytometry, HEK293-T, IgG.
Chain of human CD33 W22S (P20138 18-364 W22S limits assumed): as the sequence (P20138 18-364 R62A limits assumed) above, with W5S, A45R counted along it
For another assay, the target named is human CD33 W22P (human, UniProt P20138 18-364). Nature of the assay: flow cytometry, HEK293-T, IgG.
Chain of human CD33 W22P (P20138 18-364 W22P limits assumed): as the sequence (P20138 18-364 R62A limits assumed) above, with W5P, A45R counted along it
The next assay addresses human CD33 W22N (human, UniProt P20138 18-364). The assay is described as follows: flow cytometry, HEK293-T, IgG.
For a further assay, the target named is human CD33 L23M (human, UniProt P20138 18-364). Nature of the assay: flow cytometry, HEK293-T, IgG.
Chain of human CD33 L23M (P20138 18-364 L23M limits assumed): as the sequence (P20138 18-364 R62A limits assumed) above, with L6M, A45R counted along it
The next assay has as its target human CD33 Q24S (human, UniProt P20138 18-364). Nature of the assay: flow cytometry, HEK293-T, IgG.
Another assay addresses human CD33 Q24V (human, UniProt P20138 18-364). The assay is described as follows: flow cytometry, HEK293-T, IgG.
The next assay concerns the target human CD33 Q24I (human, UniProt P20138 18-364). The assay is described as follows: flow cytometry, HEK293-T, IgG.
A further assay deals with human CD33 Q24L (human, UniProt P20138 18-364). Nature of the assay: flow cytometry, HEK293-T, IgG.
Chain of human CD33 Q24L (P20138 18-364 Q24L limits assumed): as the sequence (P20138 18-364 R62A limits assumed) above, with Q7L, A45R counted along it
Another assay has as its target human CD33 Q24H (human, UniProt P20138 18-364). The assay is described as follows: flow cytometry, HEK293-T, IgG.
The target in a further assay is human CD33 Q24E (human, UniProt P20138 18-364). The assay is described as follows: flow cytometry, HEK293-T, IgG.
Chain of human CD33 Q24E (P20138 18-364 Q24E limits assumed): as the sequence (P20138 18-364 R62A limits assumed) above, with Q7E, A45R counted along it
In a further assay the target is human CD33 Q24R (human, UniProt P20138 18-364). The assay is described as follows: flow cytometry, HEK293-T, IgG.
Chain of human CD33 Q24R (P20138 18-364 Q24R limits assumed): as the sequence (P20138 18-364 R62A limits assumed) above, with Q7R, A45R counted along it
The target in a further assay is human CD33 V25S (human, UniProt P20138 18-364). The assay is described as follows: flow cytometry, HEK293-T, IgG.
Chain of human CD33 V25S (P20138 18-364 V25S limits assumed): as the sequence (P20138 18-364 R62A limits assumed) above, with V8S, A45R counted along it
The next assay deals with human CD33 V25I (human, UniProt P20138 18-364). The assay is described as follows: flow cytometry, HEK293-T, IgG.
Chain of human CD33 V25I (P20138 18-364 V25I limits assumed): as the sequence (P20138 18-364 R62A limits assumed) above, with V8I, A45R counted along it
Another assay addresses human CD33 V25L (human, UniProt P20138 18-364). The assay is described as follows: flow cytometry, HEK293-T, IgG.
For the next assay, the target named is human CD33 V25M (human, UniProt P20138 18-364). Nature of the assay: flow cytometry, HEK293-T, IgG.
Chain of human CD33 V25M (P20138 18-364 V25M limits assumed): as the sequence (P20138 18-364 R62A limits assumed) above, with V8M, A45R counted along it

Chain of human CD33 P19K (P20138 18-364 P19K limits assumed): as the sequence (P20138 18-364 R62A limits assumed) above, with P2K, A45R counted along it
Chain of human CD33 N20L (P20138 18-364 N20L limits assumed): as the sequence (P20138 18-364 R62A limits assumed) above, with N3L, A45R counted along it
Chain of human CD33 N20D (P20138 18-364 N20D limits assumed): as the sequence (P20138 18-364 R62A limits assumed) above, with N3D, A45R counted along it
Chain of human CD33 Q24H (P20138 18-364 Q24H limits assumed): as the sequence (P20138 18-364 R62A limits assumed) above, with Q7H, A45R counted along it
Chain of human CD33 Q24S (P20138 18-364 Q24S limits assumed): as the sequence (P20138 18-364 R62A limits assumed) above, with Q7S, A45R counted along it
T1 sequence (P20138 18-364 D140A limits assumed): as the sequence (P20138 18-364 R62A limits assumed) above, with A45R, D123A counted along it
Chain of human CD33 F21L (P20138 18-364 F21L limits assumed): as the sequence (P20138 18-364 R62A limits assumed) above, with F4L, A45R counted along it
Chain of human CD33 V25L (P20138 18-364 V25L limits assumed): as the sequence (P20138 18-364 R62A limits assumed) above, with V8L, A45R counted along it
Chain of human CD33 I47A (P20138 18-364 I47A limits assumed): as the sequence (P20138 18-364 R62A limits assumed) above, with I30A, A45R counted along it
Chain of human CD33 R119A (P20138 18-364 R119A limits assumed): as the sequence (P20138 18-364 R62A limits assumed) above, with A45R, R102A counted along it
Chain of human CD33 Q24V (P20138 18-364 Q24V limits assumed): as the sequence (P20138 18-364 R62A limits assumed) above, with Q7V, A45R counted along it
Chain of human CD33 W22N (P20138 18-364 W22N limits assumed): as the sequence (P20138 18-364 R62A limits assumed) above, with W5N, A45R counted along it
Chain of human CD33 Q24I (P20138 18-364 Q24I limits assumed): as the sequence (P20138 18-364 R62A limits assumed) above, with Q7I, A45R counted along it
Experimental for human CD33 F21H: (§1) An alanine scan on human CD33 was performed to the determine the residues on CD33 that are involved in binding to the antibodies investigated. […] Briefly, a mutation library of CD33 was created by high-throughput, site-directed mutagenesis. Each residue was individually mutated to alanine, with alanine codons mutated to serine. The mutant library was arrayed in 384-well microplates and transiently transfected into HEK293-T. Following transfection, cells were incubated with the indicated antibodies (IgG or Fab) at concentrations pre-determined using an independent immunofluorescence titration curve on wild type CD33. […] Binding of each antibody to each mutant clone was determined in duplicates. For each point, background fluorescence was subtracted from the raw data, which were then normalized to antibody reactivity with wild type CD33.
(§2) Antibodies were screened for binding to the human CD33 variants in IgG format. […] For each mutation, background fluorescence was subtracted from the raw data, which were then normalized to antibody reactivity with wild-type CD33.
Experimental for human CD33 F21I: as §1, §2
Experimental for human CD33 F21L: as §1, §2
Experimental for human CD33 F21S: as §1, §2
Experimental for human CD33 F21V: as §1, §2
Experimental for human CD33 L23M: as §1, §2
Experimental for human CD33 N20D: as §1, §2
Experimental for human CD33 N20G: as §1, §2
Experimental for human CD33 N20L: as §1, §2
Experimental for human CD33 N20P: as §1, §2
Experimental for human CD33 N20Q: as §1, §2
Experimental for human CD33 N20S: as §1, §2
Experimental for human CD33 P19K: as §1, §2
Experimental for human CD33 Q24E: as §1, §2
Experimental for human CD33 Q24H: as §1, §2
Experimental for human CD33 Q24I: as §1, §2
Experimental for human CD33 Q24L: as §1, §2
Experimental for human CD33 Q24R: as §1, §2
Experimental for human CD33 Q24S: as §1, §2
Experimental for human CD33 Q24V: as §1, §2
Experimental for human CD33 V25I: as §1, §2
Experimental for human CD33 V25L: as §1, §2
Experimental for human CD33 V25M: as §1, §2
Experimental for human CD33 V25S: as §1, §2
Experimental for human CD33 W22G: as §1, §2
Experimental for human CD33 W22N: as §1, §2
Experimental for human CD33 W22P: as §1, §2
Experimental for human CD33 W22S: as §1, §2

B1: Refmab #5 (antibody, V domains shown)
VH: QVQLVQSGAEVKKPGASVKVSCKASGYTFTNYDINWVRQAPGQGLEWIGWIYPGDGSTKYNEKFKAKATLTADTSTSTAYMELRSLRSDDTAVYYCASGYEDAMDYWGQGTTVTVSS
VL: DIQMTQSPSSLSASVGDRVTINCKASQDINSYLSWFQQKPGKAPKTLIYRANRLVDGVPSRFSGSGSGQDYTLTISSLQPEDFATYYCLQYDEFPLTFGGGTKVEIK
notes: Full-length format is human IgG1 Fc silent (PG-LALA); also made as Fab; The alanine scan used IgG or Fab
As for B1, the “Mean % WT Binding” value was determined as 123 % WT binding in the assay with human CD33 R62A; 120 % WT binding with human CD33 T75A; 114 % WT binding with human CD33 P96A; 91.6 % WT binding with human CD33 L103A; 117 % WT binding in the assay with human CD33 I47A; 167 % WT binding in the assay with human CD33 R119A.

B2: Refmab #5 (antibody, V domains shown)
VH: B1 VH
VL: B1 VL
notes: The alanine scan used IgG or Fab
B2: the “Mean % WT Binding” value came out at 118 % WT binding in the assay with human CD33 D140A and 174 % WT binding in the assay with human CD33 V165A.

B3: Refmab #5 (antibody, human IgG1, V domains shown)
VH: B1 VH
VL: B1 VL
notes: tested in IgG format
As to B3, the “Mean % WT Binding” value with human CD33 P19K stood at 86.2 % WT binding; with human CD33 N20G it was 96.9 % WT binding; with human CD33 N20S, 95.1 % WT binding; with human CD33 N20L, 96.3 % WT binding; with human CD33 N20P it was 96.8 % WT binding; in the assay with human CD33 N20Q it was 93.2 % WT binding. Also, the “Mean % WT Binding” value was 97.1 % WT binding with human CD33 N20D; 112 % WT binding with human CD33 F21S; 104 % WT binding with human CD33 F21V; 122 % WT binding with human CD33 F21L; 95.7 % WT binding with human CD33 F21I; 108 % WT binding with human CD33 F21H. For the same molecule, the “Mean % WT Binding” value with human CD33 W22G was found to be 101 % WT binding; with human CD33 W22S, 89.7 % WT binding; with human CD33 W22P, 110 % WT binding; with human CD33 W22N, 106 % WT binding; with human CD33 L23M, 90.7 % WT binding; in the assay with human CD33 Q24S it was 110 % WT binding. In addition, the “Mean % WT Binding” value with human CD33 Q24V stood at 97.9 % WT binding; with human CD33 Q24I, 94.6 % WT binding; in the assay with human CD33 Q24L, 101 % WT binding; with human CD33 Q24H it was 104 % WT binding; with human CD33 Q24E, 95.6 % WT binding; with human CD33 Q24R it was 102 % WT binding. Moreover, the “Mean % WT Binding” value is 107 % WT binding with human CD33 V25S, 98.9 % WT binding in the assay with human CD33 V25I, 94.9 % WT binding with human CD33 V25L and 87.6 % WT binding in the assay with human CD33 V25M.

B4: Refmab #6 (antibody, V domains shown)
VH: QVQLQQPGAEVVKPGASVKMSCKASGYTFTSYYIHWIKQTPGQGLEWVGVIYPGNDDISYNQKFQGKATLTADKSSTTAYMQLSSLTSEDSAVYYCAREVRLRYFDVWGQGTTVTVSS
VL: EIVLTQSPGSLAVSPGERVTMSCKSSQSVFFSSSQKNYLAWYQQIPGQSPRLLIYWASTRESGVPDRFTGSGSGTDFTLTISSVQPEDLAIYYCHQYLSSRTFGQGTKLEIK
notes: as for B1
As for B4, the “Mean % WT Binding” value amounted to 106 % WT binding with human CD33 R62A; 102 % WT binding with human CD33 T75A; 92.3 % WT binding with human CD33 P96A; 61.5 % WT binding with human CD33 L103A; 117 % WT binding with human CD33 I47A; 123 % WT binding in the assay with human CD33 R119A.

B5: Refmab #6 (antibody, V domains shown)
VH: B4 VH
VL: B4 VL
notes: as for B2
For B5, the “Mean % WT Binding” value with human CD33 D140A was found to be 104 % WT binding; with human CD33 V165A it was 101 % WT binding.

B6: Refmab #6 (antibody, human IgG1, V domains shown)
VH: B4 VH
VL: B4 VL
notes: tested in IgG format
As to B6, the “Mean % WT Binding” value with human CD33 P19K turned out to be 85.4 % WT binding; in the assay with human CD33 N20G, 101 % WT binding; in the assay with human CD33 N20S, 101 % WT binding; in the assay with human CD33 N20L, 88.2 % WT binding; with human CD33 N20P it was 97.2 % WT binding; with human CD33 N20Q, 97.2 % WT binding. Also, the “Mean % WT Binding” value with human CD33 N20D came to 103 % WT binding; with human CD33 F21S, 115 % WT binding; in the assay with human CD33 F21V, 118 % WT binding; with human CD33 F21L, 118 % WT binding; with human CD33 F21I it was 89.3 % WT binding; in the assay with human CD33 F21H it was 111 % WT binding. Also, the “Mean % WT Binding” value with human CD33 W22G turned out to be 8.1 % WT binding; with human CD33 W22S it was 6.7 % WT binding; with human CD33 W22P it was 1.8 % WT binding; in the assay with human CD33 W22N it was 5.6 % WT binding; in the assay with human CD33 L23M it was 100 % WT binding; with human CD33 Q24S, 80.7 % WT binding. The “Mean % WT Binding” value with human CD33 Q24V came out at 94.3 % WT binding; with human CD33 Q24I, 89.9 % WT binding; with human CD33 Q24L, 98.9 % WT binding; in the assay with human CD33 Q24H, 100 % WT binding; in the assay with human CD33 Q24E, 89.7 % WT binding; with human CD33 Q24R, 86.2 % WT binding. Besides, the “Mean % WT Binding” value was found to be 94.7 % WT binding in the assay with human CD33 V25S, 106 % WT binding in the assay with human CD33 V25I, 104 % WT binding with human CD33 V25L and 68.6 % WT binding in the assay with human CD33 V25M.
